# In PMC9785946, “Bioorthogonal Chemistry Approach for the Theranostics of GRPR-Expressing Cancers” (Pharmaceutics, 2022):
# Values joined by “and” are separate entries in the source; they are usually repeats but may differ in a detail not shown here. Equal entries are not always repeated. Where two headings read alike, the source gives them in different places.
# How the values were obtained:
# [1] = test system: PC3 xenografts-bearing mice; experiment: Biodistribution of 111In-radioconjugates/radiocomplex in PC3 xenografts-bearing mice; assay type: in vivo, Balb/c-male nude mice
# Description: (§1) Blood samples were taken by cardiac puncture at sacrifice.
# [2] = as above; assay type: in vivo, Balb/c-male nude mice; details: male, Balb/c nude, mouse, iv, total radioactivity; for tissue uptake at […]: 15 min p.i.
# Description: as §1
# PC3 cells = experiment: Cellular uptake, internalization and blocking assays in PC3 cells; assay type: cell-based, human; details: 37 °C
# Experimental: The time-dependent accumulation of ^111In-conjugates in PC3 cells was evaluated according to a previously described procedure. Briefly, PC3 cells were incubated at 37 °C for 5 min to 4 h with about 7.4 kBq of the tested radioconjugates. To assess the surface binding, the cells were treated twice with glycine buffer (50 mM glycine-HCl/100 mM NaCl, pH 2.8). Then, the cells were lysed with NaOH 1 M (internalized radioconjugate). The activity in both cell surface-bound and internalized fractions was measured in a γ-counter and reported as a percentage of the total applied radioactivity. The total cellular uptake was calculated by the addition of the activities recovered from the surface binding and internalized fractions. Assays for each time point were performed in quadruplicate, and data were presented as average ± SD of typically three independent experiments.
# To assess the specific GRPR-mediated cellular uptake and internalization of radioconjugates (receptor blocking studies), a similar study was performed in which cells were incubated with the [^111In]In-DOTA-Tz-TCO-PEG4-AR for 1, 2 and 4 h, with or without the GRPR agonist Tyr4-Bombesin (0.25 µg/0.5 mL/well).
# [3] = Experimental: The octanol–water partition coefficients (Po/w) of the radioconjugates (20 µL, typically 1 to 5 MBq) were determined by the “shake-flask” method, as previously described.
# [4] = 15 min p.i., listed as [111In]In-DOTA-Tz-TCO-PEG4-AR
# [5] = 1 h p.i., blocking (excess of agonist)
# [6] = 15 min p.i., listed as [111In]In-DOTA-Tz
# [7] = 1 h p.i., listed as [111In]In-DOTA-Tz
smiles,measurement,setting,value
"CC(C)C[C@H](NC(=O)C[C@H](O)[C@H](CC(C)C)NC(=O)[C@H](Cc1c[nH]cn1)NC(=O)CNC(=O)[C@@H](NC(=O)[C@H](C)NC(=O)[C@H](Cc1c[nH]c2ccccc12)NC(=O)[C@H](CCC(N)=O)NC(=O)[C@@H](Cc1ccccc1)NC(=O)CCOCCOCCOCCOCCNC(=O)OC1CCCc2c(cnnc2-c2ccc(CNC(=O)CN3CCN(CC(=O)O)CCN(CC(=O)O)CCN(CC(=O)O)CC3)cc2)CC1)C(C)C)C(N)=O (stereo partly shown) [[^111In]In-DOTA-Tz-TCO-PEG4-AR, metal not drawn]",Blood uptake,[1]; 15 min p.i.,6. 7 % I.D./g
same,Bone uptake,[1]; 15 min p.i.,7. 2 % I.D./g
same,Excretion,[1]; 15 min p.i.,17. % I.D.
same,Heart uptake,[1]; 15 min p.i.,5. 4 % I.D./g
same,Intestine uptake,[1]; 15 min p.i.,3. 6 % I.D./g
same,Lungs uptake,[1]; 15 min p.i.,9. 6 % I.D./g
same,Muscle uptake,[1]; 15 min p.i.,3. 8 % I.D./g
same,Pancreas uptake,[1]; 15 min p.i.,25.2 ± 3 % I.D./g and 25.2 ± 0.2 % I.D./g
same,Spleen uptake,[1]; 15 min p.i.,3. 6 % I.D./g
same,Stomach uptake,[1]; 15 min p.i.,10. 6 % I.D./g
same,Tumor uptake,[1]; 15 min p.i.,8.4 ± 0.5 % I.D./g
same,Kidneys uptake,[1]; [4],15. 4 % I.D./g
same,Pancreas uptake,[1]; [4],25. 2 % I.D./g
same,Tumor uptake,[1]; [4],8. 4 % I.D./g
same,Blood uptake,[1]; 1 h p.i.,2. 62 % I.D./g
same,Bone uptake,[1]; 1 h p.i.,0. 85 % I.D./g
same,Liver uptake,[1]; 1 h p.i.,1. 15 % I.D./g
same,Pancreas uptake,[1]; 1 h p.i.,13.9 ± 1.6 % I.D./g
same,Spleen uptake,[1]; 1 h p.i.,1. 32 % I.D./g
same,Tumor uptake,[1]; 1 h p.i.,9.6 ± 1.7 % I.D./g
same,Blood uptake,[1]; [5],3. 08 % I.D./g
same,Bone uptake,[1]; [5],1. 395 % I.D./g
same,Excretion,[1]; [5],51. % I.D.
same,Heart uptake,[1]; [5],1. 11 % I.D./g
same,Intestine uptake,[1]; [5],0. 995 % I.D./g
same,Kidneys uptake,[1]; [5],8. 435 % I.D./g
same,Liver uptake,[1]; [5],1. 63 % I.D./g
same,Lungs uptake,[1]; [5],2. 135 % I.D./g
same,Muscle uptake,[1]; [5],1. 755 % I.D./g
same,Pancreas uptake,[1]; [5],1. 685 % I.D./g
same,Spleen uptake,[1]; [5],0. 83 % I.D./g
same,Stomach uptake,[1]; [5],1. 16 % I.D./g
same,Tumor uptake,[1]; [5],4. 445 % I.D./g
same,Pancreas uptake,"[1]; 1 h p.i., listed as [111In]In-DOTA-Tz-TCO-PEG4-AR",13. 875 % I.D./g
same,Blood uptake,[1]; 2 h p.i.,1. 7 % I.D./g
same,Bone uptake,[1]; 2 h p.i.,0. 7 % I.D./g
same,Excretion,[1]; 2 h p.i.,84. % I.D.
same,Heart uptake,[1]; 2 h p.i.,0. 5 % I.D./g
same,Intestine uptake,[1]; 2 h p.i.,1. 1 % I.D./g
same,Kidneys uptake,[1]; 2 h p.i.,5. 4 % I.D./g
same,Liver uptake,[1]; 2 h p.i.,1. 7 % I.D./g
same,Lungs uptake,[1]; 2 h p.i.,1. 1 % I.D./g
same,Muscle uptake,[1]; 2 h p.i.,0. 6 % I.D./g
same,Pancreas uptake,[1]; 2 h p.i.,11 ± 2.5 % I.D./g
same,Spleen uptake,[1]; 2 h p.i.,0. 6 % I.D./g
same,Stomach uptake,[1]; 2 h p.i.,2. 1 % I.D./g
same,Tumor uptake,[1]; 2 h p.i.,13.1 ± 1.7 % I.D./g
same,Tumor uptake,"[1]; 2 h p.i., listed as [111In]In-DOTA-Tz-TCO-PEG4-AR",13. 1 % I.D./g
same,Blood uptake,[1]; 24 h p.i.,0. 16 % I.D./g
same,Bone uptake,[1]; 24 h p.i.,0. 038 % I.D./g
same,Excretion,[1]; 24 h p.i.,96. % I.D.
same,Heart uptake,[1]; 24 h p.i.,0. 065 % I.D./g
same,Intestine uptake,[1]; 24 h p.i.,0. 12 % I.D./g
same,Kidneys uptake,[1]; 24 h p.i.,1. 17 % I.D./g
same,Liver uptake,[1]; 24 h p.i.,0. 21 % I.D./g
same,Lungs uptake,[1]; 24 h p.i.,0. 12 % I.D./g
same,Muscle uptake,[1]; 24 h p.i.,0. 034 % I.D./g
same,Pancreas uptake,[1]; 24 h p.i.,0. 14 % I.D./g
same,Spleen uptake,[1]; 24 h p.i.,0. 065 % I.D./g
same,Stomach uptake,[1]; 24 h p.i.,0. 09 % I.D./g
same,Tumor uptake,[1]; 24 h p.i.,0. 76 % I.D./g
same,tissue uptake at 1 h,"[2]; heart, 1 h p.i., read-out: Heart uptake",0.815 %ID/g
same,dose excreted at 1 h,"[2]; in vivo, 1 h p.i., read-out: Excretion",74.8%
same,dose excreted at 24 h,"[2]; in vivo, 24 h post-injection, mainly through the renal system, read-out: Injected activity excreted",97%
same,tissue uptake at 1 h,"[2]; intestine, 1 h p.i., read-out: Intestine uptake",1.85 %ID/g
same,tissue uptake at […],"[2]; kidneys, read-out: Kidneys uptake",15.4 ± 6.2 %ID/g
same,tissue uptake at 1 h,"[2]; kidneys, 1 h p.i., read-out: Kidneys uptake",5.33 %ID/g
same,tissue uptake at […],"[2]; liver, read-out: Liver uptake",6 %ID/g
same,tissue uptake at 1 h,"[2]; lungs, 1 h p.i., read-out: Lungs uptake",1.61 %ID/g
same,tissue uptake at 1 h,"[2]; muscle, 1 h p.i., read-out: Muscle uptake",0.875 %ID/g
same,tissue uptake at 2 h,"[2]; pancreas, 2 h p.i.",11 %ID/g
same,tissue uptake at 1 h,"[2]; pancreas, with excess of agonist (receptor blocking), 1 h p.i., blocking (excess of agonist), read-out: Pancreas uptake",1.6 ± 0.6 %ID/g
same,tissue uptake at 1 h,"[2]; stomach, 1 h p.i., read-out: Stomach uptake",2.62 %ID/g
same,tissue uptake at 1 h,"[2]; tumor (PC3 xenograft), 1 h p.i., read-out: Tumor uptake",9.57 %ID/g
same,tissue uptake at 1 h,"[2]; tumor (PC3 xenograft), with excess of agonist (receptor blocking), 1 h p.i., blocking (excess of agonist), read-out: Tumor uptake",4.4 ± 2 %ID/g
same,Distribution of cell-associated activity (surface-bound vs internalized),PC3 cells,mainly bound to the cell membrane
same,Cellular uptake,PC3 cells; start of the assay,17 % of the total activity applied per million cells
same,logP,[3],-1.2 ± 0.04
O=C([O-])CN1CCN(CC(=O)[O-])CCN(CC(=O)NCc2ccc(-c3nncnn3)cc2)CCN(CC(=O)[O-])CC1.[111In+3] [[^111In]In-DOTA-Tz],Blood uptake,[1]; 15 min p.i.,2. 7 % I.D./g
same,Bone uptake,[1]; 15 min p.i.,0. 8 % I.D./g
same,Excretion,[1]; 15 min p.i.,61. % I.D.
same,Heart uptake,[1]; 15 min p.i.,0. 9 % I.D./g
same,Intestine uptake,[1]; 15 min p.i.,0. 4 % I.D./g
same,Kidneys uptake,[1]; 15 min p.i.,4. 4 % I.D./g
same,Liver uptake,[1]; 15 min p.i.,0. 9 % I.D./g
same,Lungs uptake,[1]; 15 min p.i.,1. 4 % I.D./g
same,Muscle uptake,[1]; 15 min p.i.,0. 8 % I.D./g
same,Pancreas uptake,[1]; 15 min p.i.,0.42 ± 0.02 % I.D./g
same,Spleen uptake,[1]; 15 min p.i.,0. 45 % I.D./g
same,Stomach uptake,[1]; 15 min p.i.,0. 4 % I.D./g
same,Tumor uptake,[1]; 15 min p.i.,2.46 ± 0.6 % I.D./g
same,Pancreas uptake,[1]; [6],0. 42 % I.D./g
same,Tumor uptake,[1]; [6],2. 46 % I.D./g
same,Blood uptake,[1]; 1 h p.i.,0. 4 % I.D./g
same,Bone uptake,[1]; 1 h p.i.,0. 2 % I.D./g
same,Excretion,[1]; 1 h p.i.,88 % I.D.
same,Heart uptake,[1]; 1 h p.i.,0. 17 % I.D./g
same,Intestine uptake,[1]; 1 h p.i.,0. 29 % I.D./g
same,Kidneys uptake,[1]; 1 h p.i.,2. 1 % I.D./g
same,Liver uptake,[1]; 1 h p.i.,0. 4 % I.D./g
same,Lungs uptake,[1]; 1 h p.i.,0. 38 % I.D./g
same,Muscle uptake,[1]; 1 h p.i.,0. 1 % I.D./g
same,Pancreas uptake,[1]; 1 h p.i.,0.09 ± 0.06 % I.D./g
same,Spleen uptake,[1]; 1 h p.i.,0. 14 % I.D./g
same,Stomach uptake,[1]; 1 h p.i.,0. 17 % I.D./g
same,Tumor uptake,[1]; 1 h p.i.,0.5 ± 0.2 % I.D./g
same,Pancreas uptake,[1]; [7],0. 09 % I.D./g
same,Tumor uptake,[1]; [7],0. 5 % I.D./g
same,Blood uptake,[1]; 24 h p.i.,0. 03 % I.D./g
same,Bone uptake,[1]; 24 h p.i.,0. 04 % I.D./g
same,Excretion,[1]; 24 h p.i.,97. % I.D.
same,Heart uptake,[1]; 24 h p.i.,0. 02 % I.D./g
same,Intestine uptake,[1]; 24 h p.i.,0. 09 % I.D./g
same,Kidneys uptake,[1]; 24 h p.i.,0. 87 % I.D./g
same,Liver uptake,[1]; 24 h p.i.,0. 12 % I.D./g
same,Lungs uptake,[1]; 24 h p.i.,0. 07 % I.D./g
same,Muscle uptake,[1]; 24 h p.i.,0. 021 % I.D./g
same,Pancreas uptake,[1]; 24 h p.i.,0. 03 % I.D./g
same,Spleen uptake,[1]; 24 h p.i.,0. 08 % I.D./g
same,Stomach uptake,[1]; 24 h p.i.,0. 03 % I.D./g
same,Tumor uptake,[1]; 24 h p.i.,0. 13 % I.D./g
"CC(C)C[C@H](NC(=O)C[C@H](O)[C@H](CC(C)C)NC(=O)[C@H](Cc1c[nH]cn1)NC(=O)CNC(=O)[C@@H](NC(=O)[C@H](C)NC(=O)[C@H](Cc1c[nH]c2ccccc12)NC(=O)[C@H](CCC(N)=O)NC(=O)[C@@H](Cc1ccccc1)NC(=O)CN1CCC(NC(=O)OC2CCCc3c(cnnc3-c3ccc(CNC(=O)CCC(C(=O)O)N4CCN(CC(=O)O)CCN(CC(=O)O)CCN(CC(=O)O)CC4)cc3)CC2)CC1)C(C)C)C(N)=O (stereo partly shown) [[^111In]In-DOTAGA-Tz-TCO-Pip-AR, metal not drawn]",Distribution of cell-associated activity (surface-bound vs internalized),PC3 cells,almost all cell-associated activity corresponded to the membrane-bound fraction
same,Maximum cellular uptake,PC3 cells; 5 min to 4 h,around 10 % of the total activity applied per million cells
same,logP,[3],-0.9
